Test results: publication PMC7397735 (NAR Cancer, 2020)

Biological target: POLQ-FLAG (DNA polymerase θ) (human, UniProt O75417 1-2590)
Experiment: co-IP

Sequence of POLQ-FLAG (DNA polymerase θ) (O75417 whole entry): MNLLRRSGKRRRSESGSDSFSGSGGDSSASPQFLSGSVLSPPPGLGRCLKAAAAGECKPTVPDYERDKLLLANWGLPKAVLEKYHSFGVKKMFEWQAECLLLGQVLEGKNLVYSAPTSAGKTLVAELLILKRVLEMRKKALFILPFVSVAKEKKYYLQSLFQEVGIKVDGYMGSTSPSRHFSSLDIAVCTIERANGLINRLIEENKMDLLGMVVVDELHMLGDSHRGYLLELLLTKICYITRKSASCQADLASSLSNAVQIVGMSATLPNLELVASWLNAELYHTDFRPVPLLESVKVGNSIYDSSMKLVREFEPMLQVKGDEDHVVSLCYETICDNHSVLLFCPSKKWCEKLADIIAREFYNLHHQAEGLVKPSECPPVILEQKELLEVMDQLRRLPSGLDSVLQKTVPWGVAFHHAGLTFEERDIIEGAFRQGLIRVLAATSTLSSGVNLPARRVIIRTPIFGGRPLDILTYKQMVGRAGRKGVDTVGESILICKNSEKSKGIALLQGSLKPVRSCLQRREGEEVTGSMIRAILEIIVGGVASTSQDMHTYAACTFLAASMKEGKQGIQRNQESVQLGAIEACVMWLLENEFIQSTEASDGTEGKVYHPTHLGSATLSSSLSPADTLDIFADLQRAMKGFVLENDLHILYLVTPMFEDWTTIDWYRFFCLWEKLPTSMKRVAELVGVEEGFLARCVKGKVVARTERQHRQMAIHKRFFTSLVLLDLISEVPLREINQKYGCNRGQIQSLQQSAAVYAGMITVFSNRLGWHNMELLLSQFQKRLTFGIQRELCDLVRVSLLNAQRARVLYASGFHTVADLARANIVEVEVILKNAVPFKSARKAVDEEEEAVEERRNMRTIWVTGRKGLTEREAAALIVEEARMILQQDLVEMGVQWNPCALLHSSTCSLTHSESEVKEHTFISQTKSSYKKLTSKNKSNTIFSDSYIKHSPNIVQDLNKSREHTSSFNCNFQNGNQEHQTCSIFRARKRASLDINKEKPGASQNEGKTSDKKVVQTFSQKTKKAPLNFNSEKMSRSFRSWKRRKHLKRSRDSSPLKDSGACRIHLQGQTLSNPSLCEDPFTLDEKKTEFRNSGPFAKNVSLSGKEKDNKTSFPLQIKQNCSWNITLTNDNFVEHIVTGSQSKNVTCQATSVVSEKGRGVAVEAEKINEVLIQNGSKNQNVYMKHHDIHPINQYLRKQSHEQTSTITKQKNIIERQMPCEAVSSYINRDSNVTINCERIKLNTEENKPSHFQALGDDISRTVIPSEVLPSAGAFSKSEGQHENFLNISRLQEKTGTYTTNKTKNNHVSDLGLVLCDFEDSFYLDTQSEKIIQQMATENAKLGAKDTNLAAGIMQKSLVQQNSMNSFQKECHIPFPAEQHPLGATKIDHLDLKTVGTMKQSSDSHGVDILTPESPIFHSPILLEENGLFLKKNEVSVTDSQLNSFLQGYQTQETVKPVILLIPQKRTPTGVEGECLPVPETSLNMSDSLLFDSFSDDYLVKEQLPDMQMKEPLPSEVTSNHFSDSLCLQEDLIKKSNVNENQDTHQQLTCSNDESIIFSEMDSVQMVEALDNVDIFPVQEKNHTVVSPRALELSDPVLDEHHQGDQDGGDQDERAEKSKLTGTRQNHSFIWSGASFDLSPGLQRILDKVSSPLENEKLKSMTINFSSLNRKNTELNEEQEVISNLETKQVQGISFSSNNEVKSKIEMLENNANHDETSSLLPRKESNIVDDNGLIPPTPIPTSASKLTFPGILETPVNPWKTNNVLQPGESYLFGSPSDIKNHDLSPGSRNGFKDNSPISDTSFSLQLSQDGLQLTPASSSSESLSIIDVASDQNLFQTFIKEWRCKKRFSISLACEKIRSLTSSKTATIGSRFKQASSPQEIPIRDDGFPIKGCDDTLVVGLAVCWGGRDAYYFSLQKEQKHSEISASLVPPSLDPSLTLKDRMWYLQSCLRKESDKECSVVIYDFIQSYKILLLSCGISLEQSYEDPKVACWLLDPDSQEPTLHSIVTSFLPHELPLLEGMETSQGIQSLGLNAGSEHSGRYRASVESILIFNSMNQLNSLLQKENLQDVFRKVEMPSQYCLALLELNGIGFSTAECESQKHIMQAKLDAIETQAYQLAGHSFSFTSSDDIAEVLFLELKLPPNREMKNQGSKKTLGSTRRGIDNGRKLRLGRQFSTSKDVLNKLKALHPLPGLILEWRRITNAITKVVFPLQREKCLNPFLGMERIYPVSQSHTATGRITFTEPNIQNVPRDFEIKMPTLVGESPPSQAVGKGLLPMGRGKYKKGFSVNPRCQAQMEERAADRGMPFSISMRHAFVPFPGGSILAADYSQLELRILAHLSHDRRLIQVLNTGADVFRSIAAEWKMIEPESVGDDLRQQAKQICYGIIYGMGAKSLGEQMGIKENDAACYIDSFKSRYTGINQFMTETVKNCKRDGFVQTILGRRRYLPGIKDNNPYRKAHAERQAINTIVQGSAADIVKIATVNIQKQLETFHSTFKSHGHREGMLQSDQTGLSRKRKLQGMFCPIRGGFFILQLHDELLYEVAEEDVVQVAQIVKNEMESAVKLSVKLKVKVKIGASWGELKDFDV

- fold level in POLQ-FLAG IP, BRCA2-deficient over BRCA2-proficient cells: ~4 fold
B1: MRE11 (natural protein, human (endogenous in U2OS), UniProt P49959 1-708, looked up)
chain: MSTADALDDENTFKILVATDIHLGFMEKDAVRGNDTFVTLDEILRLAQENEVDFILLGGDLFHENKPSRKTLHTCLELLRKYCMGDRPVQFEILSDQSVNFGFSKFPWVNYQDGNLNISIPVFSIHGNHDDPTGADALCALDILSCAGFVNHFGRSMSVEKIDISPVLLQKGSTKIALYGLGSIPDERLYRMFVNKKVTMLRPKEDENSWFNLFVIHQNRSKHGSTNFIPEQFLDDFIDLVIWGHEHECKIAPTKNEQQLFYISQPGSSVVTSLSPGEAVKKHVGLLRIKGRKMNMHKIPLHTVRQFFMEDIVLANHPDIFNPDNPKVTQAIQSFCLEKIEEMLENAERERLGNSHQPEKPLVRLRVDYSGGFEPFSVLRFSQKFVDRVANPKDIIHFFRHREQKEKTGEEINFGKLITKPSEGTTLRVEDLVKQYFQTAEKNVQLSLLTERGMGEAVQEFVDKEEKDAIEELVKYQLEKTQRFLKERHIDALEDKIDEEVRRFRETRQKNTNEEDDEVREAMTRARALRSQSEESASAFSADDLMSIDLAEQMANDSDDSISAATNKGRGRGRGRRGGRGQNSASRGGSQRGRADTGLETSTRSRNSKTAVSASRNMSIIDAFKSTRQQPSRNVTTKNYSEVIEVDESDVEEDIFPTTSKTDQRWSSTSSSKIMSQSQVSKGVDFESSEDDDDDPFMNTSSLRRNRR
